# Results reported in the supplement of paper PMC7125110.
# ± gives the standard error. Variants at the floor of the assay were thinned out.
# B1: glmS ribozyme (parent)
# chain: AUAAAAGCGCCAGAACUACAGAAAUGUAGUUGACGAGGAGGAGGUUUAUCGAAUUUUCGGCGGAUGCCUCCAAA
# Columns and labels:
# Conditions in all cases: with glucosamine-6-phosphate
# glucosamine-6-phosphate [1] = variants of: B1; assay: self-cleavage kobs at 40 uM GlcN6P; higher = faster cleavage; RNA array
# Procedure, shortened: (§1)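 Using a hybridised Cy3 probe at 37 °C, barcoded ribozyme variants transcribed in situ by E. coli RNA polymerase on sequenced MiSeq chips were monitored across tiles imaged over ~14 h. The flow contained glucosamine-6-phosphate from 40 μM to 10 mM in HEPES/KCl/Mg(OAc)2 buffer. Signals were normalised to baseline and to non-cleaving reference variants before per-tile medians were fit to one- or two-exponential decays to yield kobs. Weighted Michaelis–Menten fits across concentrations gave kcat and KM.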
# glucosamine-6-phosphate [2] = variants of: B1; assay: self-cleavage kobs at 160 uM GlcN6P; higher = faster cleavage; RNA array
# Procedure, shortened: as §1
# glucosamine-6-phosphate [3] = variants of: B1; assay: self-cleavage kobs at 640 uM GlcN6P; higher = faster cleavage; RNA array
# Procedure, shortened: as §1
# glucosamine-6-phosphate [4] = variants of: B1; assay: self-cleavage kobs at 10000 uM GlcN6P; higher = faster cleavage; RNA array
# Procedure, shortened: as §1
# glucosamine-6-phosphate [5] = variants of: B1; assay: self-cleavage kobs at 2500 uM GlcN6P; higher = faster cleavage; RNA array
# Procedure, shortened: as §1
Variant,self-cleavage kobs at 40 uM GlcN6P (glucosamine-6-phosphate [1]),self-cleavage kobs at 160 uM GlcN6P (glucosamine-6-phosphate [2]),self-cleavage kobs at 640 uM GlcN6P (glucosamine-6-phosphate [3]),self-cleavage kobs at 10000 uM GlcN6P (glucosamine-6-phosphate [4]),self-cleavage kobs at 2500 uM GlcN6P (glucosamine-6-phosphate [5])
G7A U46G,< 1e-05 s⁻¹,< 1e-05 s⁻¹,< 1e-05 s⁻¹,,
U31A A64C,< 1e-05 s⁻¹,,,4.57e-05 ± 1e-05 s⁻¹,
C8G G32A G59U,< 1e-05 s⁻¹,,,< 1e-05 s⁻¹,< 1e-05 s⁻¹
G9U G59U,< 1e-05 s⁻¹,< 1e-05 s⁻¹,,< 1e-05 s⁻¹,
G38A G44C U47A,< 1e-05 s⁻¹,,,< 1e-05 s⁻¹,
G7A U30G G41C C58G G66A,< 1e-05 s⁻¹,,,,
A15G U25A C50G C70U,6.43e-05 ± 1.3e-05 s⁻¹,,,6.03e-05 ± 1.6e-05 s⁻¹,
C10U G41U,< 1e-05 s⁻¹,< 1e-05 s⁻¹,< 1e-05 s⁻¹,< 1e-05 s⁻¹,< 1e-05 s⁻¹
G32U C58G A64G C67A,7.51e-05 ± 2.6e-05 s⁻¹,,,0.000152 ± 2.4e-05 s⁻¹,
C11A A14U A36U U46A,< 1e-05 s⁻¹,,,< 1e-05 s⁻¹,< 1e-05 s⁻¹
A24U,0.002 ± 0.0003 s⁻¹,,,,
C11U G41C,< 1e-05 s⁻¹,< 1e-05 s⁻¹,,,
C8A G60U,< 1e-05 s⁻¹,< 1e-05 s⁻¹,< 1e-05 s⁻¹,,< 1e-05 s⁻¹
U30G G60U,< 1e-05 s⁻¹,,< 1e-05 s⁻¹,< 1e-05 s⁻¹,
C11U A36G G38C U69C,< 1e-05 s⁻¹,,,,
A42C G44A,< 1e-05 s⁻¹,< 1e-05 s⁻¹,< 1e-05 s⁻¹,< 1e-05 s⁻¹,
C16U G40U U56A C71G,3.89e-05 ± 1.1e-05 s⁻¹,,,0.00169 ± 0.00032 s⁻¹,
G13C C50G G63A C70G,0.000201 ± 7.2e-05 s⁻¹,,,0.000144 ± 4.2e-05 s⁻¹,
C8A U47C C58G G66U,< 1e-05 s⁻¹,,,< 1e-05 s⁻¹,< 1e-05 s⁻¹
G51A G62C,< 1e-05 s⁻¹,< 1e-05 s⁻¹,< 1e-05 s⁻¹,< 1e-05 s⁻¹,< 1e-05 s⁻¹
G60U A64U,< 1e-05 s⁻¹,< 1e-05 s⁻¹,,< 1e-05 s⁻¹,< 1e-05 s⁻¹
G44A U47C,< 1e-05 s⁻¹,< 1e-05 s⁻¹,< 1e-05 s⁻¹,< 1e-05 s⁻¹,< 1e-05 s⁻¹
C11G G40A G43A,< 1e-05 s⁻¹,,,< 1e-05 s⁻¹,
A12U C50G,4.38e-05 ± 1.4e-05 s⁻¹,0.000613 ± 0.00026 s⁻¹,,0.000147 ± 4.2e-05 s⁻¹,6.46e-05 ± 2.2e-05 s⁻¹

Variant,self-cleavage kobs at 40 uM GlcN6P (glucosamine-6-phosphate [1]),self-cleavage kobs at 160 uM GlcN6P (glucosamine-6-phosphate [2]),self-cleavage kobs at 640 uM GlcN6P (glucosamine-6-phosphate [3]),self-cleavage kobs at 10000 uM GlcN6P (glucosamine-6-phosphate [4]),self-cleavage kobs at 2500 uM GlcN6P (glucosamine-6-phosphate [5])
G13C U31A G40U,< 1e-05 s⁻¹,,< 1e-05 s⁻¹,,
A15C G29C U30C U31G G38C G60A U69G,< 1e-05 s⁻¹,,,,
G32A G37C A42U,< 1e-05 s⁻¹,,,,
G9A G29C,< 1e-05 s⁻¹,< 1e-05 s⁻¹,< 1e-05 s⁻¹,< 1e-05 s⁻¹,
A36C U49C U65A,< 1e-05 s⁻¹,,,< 1e-05 s⁻¹,
G37C C68A,< 1e-05 s⁻¹,,,< 1e-05 s⁻¹,
U31C U45A G60A C67A,< 1e-05 s⁻¹,< 1e-05 s⁻¹,,,
G37A G51C,< 1e-05 s⁻¹,< 1e-05 s⁻¹,< 1e-05 s⁻¹,< 1e-05 s⁻¹,< 1e-05 s⁻¹
C34G G43C,< 1e-05 s⁻¹,< 1e-05 s⁻¹,< 1e-05 s⁻¹,,< 1e-05 s⁻¹
C8U A42G,< 1e-05 s⁻¹,< 1e-05 s⁻¹,,< 1e-05 s⁻¹,
C16A U47C C50G G66A C67U U69G,7.74e-05 ± 2.6e-05 s⁻¹,,,4.24e-05 ± 1.6e-05 s⁻¹,
C11U U49C G51U,< 1e-05 s⁻¹,,,,
C8G G60C,< 1e-05 s⁻¹,< 1e-05 s⁻¹,,< 1e-05 s⁻¹,
U45C U55C,5.77e-05 ± 1.3e-05 s⁻¹,,,0.00272 ± 0.00037 s⁻¹,0.00199 ± 0.00054 s⁻¹
C10A G59A,< 1e-05 s⁻¹,,< 1e-05 s⁻¹,,
A6C G37U G44U,< 1e-05 s⁻¹,,,,
G7U G32U U49A,< 1e-05 s⁻¹,,< 1e-05 s⁻¹,< 1e-05 s⁻¹,< 1e-05 s⁻¹
A14U G35U U69G,0.000295 ± 0.00012 s⁻¹,,,6.56e-05 ± 1.9e-05 s⁻¹,
A15C A33C C50G C61G,0.000147 ± 3.9e-05 s⁻¹,,,0.000196 ± 3.4e-05 s⁻¹,
C10U G32C C68A,< 1e-05 s⁻¹,,,,
G37C A42U C70A,< 1e-05 s⁻¹,,,,
A6U C16U G32C A42U U57G,< 1e-05 s⁻¹,,,,
G13U G32A C50U,< 1e-05 s⁻¹,,,< 1e-05 s⁻¹,< 1e-05 s⁻¹
G13A G62A,< 1e-05 s⁻¹,< 1e-05 s⁻¹,< 1e-05 s⁻¹,< 1e-05 s⁻¹,< 1e-05 s⁻¹

Variant,self-cleavage kobs at 40 uM GlcN6P (glucosamine-6-phosphate [1]),self-cleavage kobs at 160 uM GlcN6P (glucosamine-6-phosphate [2]),self-cleavage kobs at 640 uM GlcN6P (glucosamine-6-phosphate [3]),self-cleavage kobs at 10000 uM GlcN6P (glucosamine-6-phosphate [4]),self-cleavage kobs at 2500 uM GlcN6P (glucosamine-6-phosphate [5])
U46G C70U,0.000256 ± 2.3e-05 s⁻¹,0.000556 ± 8.8e-05 s⁻¹,0.00125 ± 0.0002 s⁻¹,0.00705 ± 0.00083 s⁻¹,0.00235 ± 0.00055 s⁻¹
G37U G41C C67A,< 1e-05 s⁻¹,,,,
A6U A36G,< 1e-05 s⁻¹,< 1e-05 s⁻¹,< 1e-05 s⁻¹,< 1e-05 s⁻¹,
A14G G51C,< 1e-05 s⁻¹,,< 1e-05 s⁻¹,< 1e-05 s⁻¹,
U49C G63A C67G,< 1e-05 s⁻¹,,,< 1e-05 s⁻¹,
C34U U57C C58U,< 1e-05 s⁻¹,,,< 1e-05 s⁻¹,< 1e-05 s⁻¹
G29C U49G C58A,< 1e-05 s⁻¹,,,,
G7C U55A,< 1e-05 s⁻¹,< 1e-05 s⁻¹,< 1e-05 s⁻¹,,< 1e-05 s⁻¹
G60C G66U,< 1e-05 s⁻¹,,< 1e-05 s⁻¹,,< 1e-05 s⁻¹
G9A G43U,< 1e-05 s⁻¹,< 1e-05 s⁻¹,< 1e-05 s⁻¹,,< 1e-05 s⁻¹
C10A G32C,< 1e-05 s⁻¹,,< 1e-05 s⁻¹,,< 1e-05 s⁻¹
G29A G37U G40U U65G C68U,< 1e-05 s⁻¹,,,,
G29A C70U,0.000121 ± 1.3e-05 s⁻¹,0.000201 ± 2.9e-05 s⁻¹,0.000483 ± 6e-05 s⁻¹,0.0021 ± 0.0006 s⁻¹,
U46C G59C C68U,< 1e-05 s⁻¹,,,,
C10U U54A U57C,< 1e-05 s⁻¹,,,,
C16A G29U,0.000701 ± 7.4e-05 s⁻¹,0.00212 ± 0.00064 s⁻¹,0.00517 ± 0.00081 s⁻¹,0.0387 ± 0.0071 s⁻¹,0.0144 ± 0.0033 s⁻¹
G51U G62C,< 1e-05 s⁻¹,,< 1e-05 s⁻¹,< 1e-05 s⁻¹,< 1e-05 s⁻¹
C8U C61U,< 1e-05 s⁻¹,< 1e-05 s⁻¹,< 1e-05 s⁻¹,< 1e-05 s⁻¹,< 1e-05 s⁻¹
A15C G32C A64U C67A,< 1e-05 s⁻¹,,,,
G59C C68U,< 1e-05 s⁻¹,,,,
G7A A53C,< 1e-05 s⁻¹,< 1e-05 s⁻¹,< 1e-05 s⁻¹,,< 1e-05 s⁻¹
G38A A42U G44U A48G,< 1e-05 s⁻¹,,,,
U45C U69G C71U,< 1e-05 s⁻¹,,,,
C34A A36G,< 1e-05 s⁻¹,< 1e-05 s⁻¹,< 1e-05 s⁻¹,< 1e-05 s⁻¹,< 1e-05 s⁻¹

Variant,self-cleavage kobs at 40 uM GlcN6P (glucosamine-6-phosphate [1]),self-cleavage kobs at 160 uM GlcN6P (glucosamine-6-phosphate [2]),self-cleavage kobs at 640 uM GlcN6P (glucosamine-6-phosphate [3]),self-cleavage kobs at 10000 uM GlcN6P (glucosamine-6-phosphate [4]),self-cleavage kobs at 2500 uM GlcN6P (glucosamine-6-phosphate [5])
A33U G62C,< 1e-05 s⁻¹,,< 1e-05 s⁻¹,,
A42C C50U U69A,< 1e-05 s⁻¹,,,< 1e-05 s⁻¹,
A12G A14G U30A U46C U49C U57C,< 1e-05 s⁻¹,,,< 1e-05 s⁻¹,< 1e-05 s⁻¹
G7A G66U,< 1e-05 s⁻¹,< 1e-05 s⁻¹,,< 1e-05 s⁻¹,< 1e-05 s⁻¹
G26U U46G,0.000306 ± 7.3e-05 s⁻¹,,,0.00888 ± 0.0026 s⁻¹,
G35A G44U U65A C70G,< 1e-05 s⁻¹,< 1e-05 s⁻¹,,,< 1e-05 s⁻¹
C10A C34G,< 1e-05 s⁻¹,,< 1e-05 s⁻¹,< 1e-05 s⁻¹,< 1e-05 s⁻¹
A6C U46A U49A,< 1e-05 s⁻¹,< 1e-05 s⁻¹,< 1e-05 s⁻¹,,< 1e-05 s⁻¹
G7U C58A C67G C70U,9.59e-05 ± 3.4e-05 s⁻¹,,,,
U46A A48U U57A G60U C67U C68A,< 1e-05 s⁻¹,,,,< 1e-05 s⁻¹
C50A G63C,< 1e-05 s⁻¹,< 1e-05 s⁻¹,,< 1e-05 s⁻¹,
U56A C70U,0.000377 ± 3.2e-05 s⁻¹,0.000852 ± 0.00013 s⁻¹,0.002 ± 0.00026 s⁻¹,0.0156 ± 0.0024 s⁻¹,0.0104 ± 0.0022 s⁻¹
C10U U45A C50U G66A,< 1e-05 s⁻¹,,,< 1e-05 s⁻¹,
A14U C16U G29U C50A G62U,< 1e-05 s⁻¹,,,,
U31C G32A G60U,< 1e-05 s⁻¹,,,< 1e-05 s⁻¹,< 1e-05 s⁻¹
A14G G66A,0.000901 ± 0.00011 s⁻¹,0.00369 ± 0.0009 s⁻¹,0.00997 ± 0.0018 s⁻¹,0.0634 ± 0.015 s⁻¹,0.0046 ± 0.001 s⁻¹
C34U A52G,< 1e-05 s⁻¹,< 1e-05 s⁻¹,,< 1e-05 s⁻¹,
C8G A39C,< 1e-05 s⁻¹,< 1e-05 s⁻¹,< 1e-05 s⁻¹,< 1e-05 s⁻¹,< 1e-05 s⁻¹
A14G G44U A64U,< 1e-05 s⁻¹,,< 1e-05 s⁻¹,,< 1e-05 s⁻¹
G7C C11U C61A C70G,< 1e-05 s⁻¹,,,,< 1e-05 s⁻¹
U31G A64U,< 1e-05 s⁻¹,< 1e-05 s⁻¹,< 1e-05 s⁻¹,,< 1e-05 s⁻¹
